Results published in publication doi:10.1101/2022.06.14.496144, “Crystal structure and functional peculiarities of a primordial Orange Carotenoid Protein (OCPX)” (bioRxiv, 2022).

Target: T1, SynOCP1 lacking the N-terminal extension (ΔNTE-SynOCP1) (Synechocystis sp. PCC 6803, UniProt P74102 13-317)
T1 construct: Orange Carotenoid Protein of Synechocystis sp; PCC 6803 (Uniprot P74102) lacking residues M1-F12 from the N-terminus; also called SynOCP1 ΔNTE mutant; source: E. coli C41(DE3) synthesizing echinenone, purified (subtractive IMAC, SEC)
T1 sequence (looked up): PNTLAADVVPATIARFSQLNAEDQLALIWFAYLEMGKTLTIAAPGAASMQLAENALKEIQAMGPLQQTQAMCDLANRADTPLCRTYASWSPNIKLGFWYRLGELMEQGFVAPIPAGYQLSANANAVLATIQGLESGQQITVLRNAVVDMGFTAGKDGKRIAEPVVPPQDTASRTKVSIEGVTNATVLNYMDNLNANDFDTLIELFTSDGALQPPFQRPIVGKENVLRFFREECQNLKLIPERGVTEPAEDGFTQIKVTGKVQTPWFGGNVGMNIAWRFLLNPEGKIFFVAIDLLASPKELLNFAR
Test: SEC; spectrochromatography on Superdex 200 Increase 5/150 with diode-array detection; ΔNTE-OCP 20 μM mixed with FRP 40 μM; 20 mM Tris-HCl pH 7.6, 150 mM NaCl; absorbance spectrum ('oranging') read in the same runs
Conditions: both partners purified

B1: Fluorescence Recovery Protein from Synechocystis (SynFRP) (natural protein, UniProt P74103 1-109, looked up)
chain: MLQTAEAPWSQAETQSAHALFRKAYQRELDGLLATVQAQASQITQIDDLWKLHDFLSAKRHEIDGKYDDRQSVIIFVFAQLLKEGLVQAEELTFLAADKQSKIKALARL
notes: Fluorescence Recovery Protein of Synechocystis (Uniprot P74103); source: E. coli C41(DE3), purified (subtractive IMAC, SEC)
binding result: binds
